The record followed here is PMC9352680, “A comprehensive thermodynamic model for RNA binding by the Saccharomyces cerevisiae Pumilio protein PUF4”.

Positions count from the first letter of the chain named. In names and notes the source's numbering stands.

The labels stand for the following.
B1: Ie_S2_P5E.1_K5.1_C5.1_H5.1_[+2CC]_A5.1_F5.1_T5.1 (ssRNA)
RNA: UUUGAUUAAUAUGAUAUCGUUCUUUCUUGCCUAUUAUUAUUCUUUCUCGAUAUCAUAUUAAUCUUU
B2: Ie_S2_P5E.1_K5.1_C5.1_H5.1_[+2CT]_A5.1_F5.1_T5.1 (ssRNA)
RNA: B1 RNA with C31U
B3: Ie_S2_P5E.1_K5.1_C5.1_H5.1_[+2TT]_A5.1_F5.1_T5.1 (ssRNA)
RNA: B1 RNA with C30U, C31U
B4: Ie_S2_P5E.1_K5.1_C5.1_H5.1_[+1CTCTC]_A5.1_F5.1_T5.1 (ssRNA)
RNA: UUUGAUUAAUAUGAUAUCGUUCUUUCUUCUCUCGUAUUAUUAUUCUUUCUCGAUAUCAUAUUAAUCUUU
B5: Ie_S2_P5E.1_K5.1_C5.1_H5.1_[+3CCCTT]_A5.1_F5.1_T5.1 (ssRNA)
RNA: B4 RNA with C29G, U32C, G34U
B6: Ie_S2_P5E.1_K5.1_C5.1_H5.1_[+1CCCTT]_A5.1_F5.1_T5.1 (ssRNA)
RNA: B4 RNA with U30C, C33U
B7: Ie_S2_P5E.1_K5.1_C5.1_H5.1_[+4TTCCT]_A5.1_F5.1_T5.1 (ssRNA)
RNA: B4 RNA with C29G, C31A, C33U, G34C, U35C, A36U
B8: Ie_S2_P5E.1_K5.1_C5.1_H5.1_[+2TTCCT]_A5.1_F5.1_T5.1 (ssRNA)
RNA: B4 RNA with C29G, C31U, U32C, G34U
B9: Ie_S2_P5E.1_K5.1_C5.1_H5.1_[+4CTCTC]_A5.1_F5.1_T5.1 (ssRNA)
RNA: B4 RNA with C29G, C31A, U32C, C33U, G34C, A36C
B10: Ie_S2_P5E.1_K5.1_C5.1_H5.1_[+2CTCTC]_A5.1_F5.1_T5.1 (ssRNA)
RNA: B4 RNA with C29G, U30C, C31U, U32C, C33U, G34C
B11: Ie_S2_P5E.1_K5.1_C5.1_H5.1_[+2CCTCT]_A5.1_F5.1_T5.1 (ssRNA)
RNA: B4 RNA with C29G, U30C, G34U
B12: Ie_S2_P5E.1_K5.1_C5.1_H5.1_[+2TCTCT]_A5.1_F5.1_T5.1 (ssRNA)
RNA: B4 RNA with C29G, G34U
B13: Ie_S2_P5E.1_K5.1_C5.1_H5.1_[+4TCTCT]_A5.1_F5.1_T5.1 (ssRNA)
RNA: B4 RNA with C29G, C31A, G34U, U35C, A36U
B14: Ie_S2_P5E.1_K5.1_C5.1_H5.1_[+1CCTCT]_A5.1_F5.1_T5.1 (ssRNA)
RNA: B4 RNA with U30C, C31U, U32C, C33U
B15: Ie_S2_P5E.1_K5.1_C5.1_H5.1_[+4CCCTT]_A5.1_F5.1_T5.1 (ssRNA)
RNA: B4 RNA with C29G, C31A, U32C, G34C, A36U
B16: Ie_S2_P5E.1_K5.1_C5.1_H5.1_[+3CCTCT]_A5.1_F5.1_T5.1 (ssRNA)
RNA: B4 RNA with C29G, U32C, C33U, G34C
B17: Ie_S2_P5E.1_K5.1_C5.1_H5.1_A5.1_[+5CTCTC]_F5.1_T5.1 (ssRNA)
RNA: B4 RNA with C29G, C31A, G34U, U35C, A36U, U37C
B18: Ie_S2_P5E.1_K5.1_C5.1_H5.1_[+3TTCCT]_A5.1_F5.1_T5.1 (ssRNA)
RNA: B4 RNA with C29G, C31U, G34C
B19: Ie_S2_P5E.1_K5.1_C5.1_H5.1_[+1CTCT]_A5.1_F5.1_T5.1 (ssRNA)
RNA: UUUGAUUAAUAUGAUAUCGUUCUUUCUUCUCUGUAUUAUUAUUCUUUCUCGAUAUCAUAUUAAUCUUU
B20: Ie_S2_P5E.1_K5.1_C5.1_H5.1_[+1TCTC]_A5.1_F5.1_T5.1 (ssRNA)
RNA: B19 RNA with C29U, U30C, C31U, U32C
B21: Ie_S2_P5E.1_K5.1_C5.1_H5.1_[+2TTCC]_A5.1_F5.1_T5.1 (ssRNA)
RNA: B19 RNA with C29G, C31U, U32C, G33C
B22: Ie_S2_P5E.1_K5.1_C5.1_H5.1_[+3TCTC]_A5.1_F5.1_T5.1 (ssRNA)
RNA: B19 RNA with C29G, C31U, U32C, G33U, U34C
B23: Ie_S2_P5E.1_K5.1_C5.1_H5.1_[+3CCTC]_A5.1_F5.1_T5.1 (ssRNA)
RNA: B19 RNA with C29G, U32C, G33U, U34C
B24: Ie_S2_P5E.1_K5.1_C5.1_H5.1_[+2TCTC]_A5.1_F5.1_T5.1 (ssRNA)
RNA: B19 RNA with C29G, G33C
B25: Ie_S2_P5E.1_K5.1_C5.1_H5.1_[+1CCCT]_A5.1_F5.1_T5.1 (ssRNA)
RNA: B19 RNA with U30C
B26: Ie_S2_P5E.1_K5.1_C5.1_H5.1_[+2CCTC]_A5.1_F5.1_T5.1 (ssRNA)
RNA: B19 RNA with C29G, U30C, G33C
B27: Ie_S2_P5E.1_K5.1_C5.1_H5.1_[+2CCCT]_A5.1_F5.1_T5.1 (ssRNA)
RNA: B19 RNA with C29G, U30C, U32C, G33U
B28: Ib_S2_P3E.1_K3.1_C3.1_H3.1_[T1A]_[G2A]_A3.1_F3.1_T3.1 (ssRNA)
RNA: UUUGAUUAAUAUGAUAUCGUUCUUUCUAAUAUAUAUUCUUUCUCGAUAUCAUAUUAAUCUUU
B29: Ib_S2_P3E.1_K3.1_C3.1_H3.1_[T1G]_[A4C]_A3.1_F3.1_T3.1 (ssRNA)
RNA: B28 RNA with A28G, A29G, A31C
B30: Ib_S2_P3E.1_K3.1_C3.1_H3.1_[T1C]_[T3C]_A3.1_F3.1_T3.1 (ssRNA)
RNA: B28 RNA with A28C, A29G, U30C
B31: Ib_S2_P3E.1_K3.1_C3.1_H3.1_[T1G]_[A4G]_A3.1_F3.1_T3.1 (ssRNA)
RNA: B28 RNA with A28G, A29G, A31G
B32: Ie_S2_P5E.1_K5.1_C5.1_H5.1_[+1TTT]_A5.1_F5.1_T5.1 (ssRNA)
RNA: UUUGAUUAAUAUGAUAUCGUUCUUUCUUUUUGUAUUAUUAUUCUUUCUCGAUAUCAUAUUAAUCUUU
B33: Ie_S2_P5E.1_K5.1_C5.1_H5.1_[+3TCC]_A5.1_F5.1_T5.1 (ssRNA)
RNA: B32 RNA with U29G, G32C, U33C
B34: Ie_S2_P5E.1_K5.1_C5.1_H5.1_[+4TTC]_A5.1_F5.1_T5.1 (ssRNA)
RNA: B32 RNA with U29G, U31A, G32U, A34C
B35: Ie_S2_P5E.1_K5.1_C5.1_H5.1_[+2TTC]_A5.1_F5.1_T5.1 (ssRNA)
RNA: B32 RNA with U29G, G32C
B36: Ie_S2_P5E.1_K5.1_C5.1_H5.1_A5.1_[+5TTT]_F5.1_T5.1 (ssRNA)
RNA: B32 RNA with U29G, U31A, G32U, A34U
B37: Ie_S2_P5E.1_K5.1_C5.1_H5.1_[+2CTT]_A5.1_F5.1_T5.1 (ssRNA)
RNA: B32 RNA with U29G, U30C, G32U
B38: Ie_S2_P5E.1_K5.1_C5.1_H5.1_A5.1_[+6TCT]_F5.1_T5.1 (ssRNA)
RNA: B32 RNA with U29G, U31A, G32U, A34U, U35C
B39: Ie_S2_P5E.1_K5.1_C5.1_H5.1_[+2TCC]_A5.1_F5.1_T5.1 (ssRNA)
RNA: B32 RNA with U29G, U31C, G32C
B40: Ie_S2_P5E.1_K5.1_C5.1_H5.1_[+3CCC]_A5.1_F5.1_T5.1 (ssRNA)
RNA: B32 RNA with U29G, U31C, G32C, U33C
B41: Ie_S2_P5E.1_K5.1_C5.1_H5.1_[+2CTC]_A5.1_F5.1_T5.1 (ssRNA)
RNA: B32 RNA with U29G, U30C, G32C
B42: Ie_S2_P5E.1_K5.1_C5.1_H5.1_[+3TTT]_A5.1_F5.1_T5.1 (ssRNA)
RNA: B32 RNA with U29G, G32U
B43: Ie_S2_P5E.1_K5.1_C5.1_H5.1_[+2TCT]_A5.1_F5.1_T5.1 (ssRNA)
RNA: B32 RNA with U29G, U31C, G32U
B44: Ie_S2_P5E.1_K5.1_C5.1_H5.1_[+3TTC]_A5.1_F5.1_T5.1 (ssRNA)
RNA: B32 RNA with U29G, G32U, U33C
B45: Ie_S2_P5E.1_K5.1_C5.1_H5.1_[+3CTC]_A5.1_F5.1_T5.1 (ssRNA)
RNA: B32 RNA with U29G, U31C, G32U, U33C
B46: Ie_S2_P5E.1_K5.1_C5.1_H5.1_[+4TCC]_A5.1_F5.1_T5.1 (ssRNA)
RNA: B32 RNA with U29G, U31A, G32U, U33C, A34C
B47: Ie_S2_P5E.1_K5.1_C5.1_H5.1_[+4CTT]_A5.1_F5.1_T5.1 (ssRNA)
RNA: B32 RNA with U29G, U31A, G32C, A34U
B48: Ie_S2_P5E.1_K5.1_C5.1_H5.1_[+2T]_A5.1_F5.1_T5.1 (ssRNA)
RNA: UUUGAUUAAUAUGAUAUCGUUCUUUCUUGUUAUUAUUAUUCUUUCUCGAUAUCAUAUUAAUCUUU

The series concerns the target T1, PUF4 RNA-binding domain (Saccharomyces cerevisiae, UniProt P25339 537-888).
T1 sequence: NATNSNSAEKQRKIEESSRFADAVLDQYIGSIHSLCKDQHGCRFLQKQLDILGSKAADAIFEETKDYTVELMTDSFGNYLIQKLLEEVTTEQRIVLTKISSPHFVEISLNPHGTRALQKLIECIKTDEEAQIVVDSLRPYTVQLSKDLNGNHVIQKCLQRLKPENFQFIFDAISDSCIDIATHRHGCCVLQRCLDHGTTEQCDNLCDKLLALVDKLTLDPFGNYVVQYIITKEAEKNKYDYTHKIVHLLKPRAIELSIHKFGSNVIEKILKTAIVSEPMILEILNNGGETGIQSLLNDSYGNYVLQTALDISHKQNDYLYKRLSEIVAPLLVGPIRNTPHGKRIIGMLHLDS
Description: Mg; RNA-MaP; 20 mM Na-HEPES pH 7.4, 30 mM KOAc, 0.75 mM MgCl2, 0.1% Tween-20, 5% glycerol, 0.1 mg/mL BSA, 2 mM DTT; 25 C; 0.0125-409.6 nM protein. The note with it: tags: N-His6-TEV cleaved; C-SNAP kept, Cy3B-labelled; label: tethered on chip by stalled RNA polymerase.
A word on the Kd: it is the constant that tells how readily two partners part at equilibrium. A higher Kd goes with lower affinity. With B1, the equilibrium dissociation constant (Kd) was 679 nM.

In the case of B2, the equilibrium dissociation constant (Kd) was found to be 725 nM.

As to B3, the dissociation constant (Kd) was 6.21 nM.

As to B4, binding was characterised by a dissociation constant (Kd) of 204 nM.

The molecule B5 showed a Kd of 54.6 nM.

For B6, binding was characterised by a dissociation constant (Kd) of 1.2 nM.

For the molecule B7, binding was characterised by a dissociation constant (Kd) of 18.1 nM.

B8 showed a dissociation constant (Kd) of 27.4 nM.

Molecule B9 had a Kd of 7.93 nM.

Molecule B10 gave a dissociation constant Kd of 724 nM.

With B11, the Kd is more than 2300 nM.

Turning to B12, binding was put at a Kd of 39.3 nM.

Turning to B13, the dissociation constant Kd was 10.5 nM.

As for B14, the dissociation constant (Kd) is 1.23 nM.

B15 yielded a Kd of 6.38 nM.

B16: binding was put at a Kd of 35.3 nM.

Molecule B17 showed a dissociation constant Kd of 13.3 nM.

The molecule B18 gave a Kd of 46.3 nM.

Molecule B19 returned a dissociation constant (Kd) of 1.25 nM.

B20 displayed a dissociation constant (Kd) of 245 nM.

B21 gave a Kd of 37.6 nM.

For B22, binding was put at a Kd of 56.2 nM.

As to B23, binding was characterised by a dissociation constant (Kd) of 127 nM.

B24 showed a Kd of 34.8 nM.

In turn, B25 had an equilibrium dissociation constant (Kd) of 1.15 nM.

Molecule B26 yielded a Kd of 1100 nM.

Molecule B27 yielded a Kd of 1170 nM.

Consider B28, for which the Kd is 889 nM.

In turn, B29 displayed a Kd of more than 2300 nM.

On to B30, for which the Kd was more than 2300 nM.

Molecule B31 returned a Kd of 10.7 nM.

For the molecule B32, the equilibrium dissociation constant (Kd) worked out at 1.6 nM.

B33 had a Kd of 11.4 nM.

B34 gave a Kd of 2.96 nM.

Consider B35, for which binding was put at a Kd of 6.91 nM.

On to B36, for which the equilibrium dissociation constant (Kd) is 1.6 nM.

Turning to B37, binding was put at a Kd of 368 nM.

For B38, binding was characterised by a dissociation constant (Kd) of 2.42 nM.

Molecule B39 showed a dissociation constant Kd of 22.2 nM.

Molecule B40 showed a Kd of 24.4 nM.

B41 showed a Kd of 499 nM.

Molecule B42 came in with a Kd of 11.3 nM.

Regarding B43, binding was put at a Kd of 11.1 nM.

B44 showed a dissociation constant (Kd) of 7.67 nM.

In the case of B45, the Kd was 10.1 nM.

B46 came in with a Kd of 2.6 nM.

For B47, binding was characterised by a dissociation constant (Kd) of 1.36 nM.

With B48, the dissociation constant Kd turned out to be 26 nM.
